Numbered stars: 1 amine (or outer) side, 2 acyl side, 3 side chain; on linkers, the order of the positions; unused ones are H or OH. Bridge positions count the residues as written; N and C are the ends. Side chains are listed from the residue outwards. Ends that are not written are not given here. * marks the point of attachment. C20 diacid = O=C(O)CCCCCCCCCCCCCCCCCCC(=O)*; γGlu = O=C(O)[C@H](CCC(=O)[*:2])N[*:1]

For test [1], the target named is T1, human calcitonin receptor (human, UniProt P30988 25-474).
T1 construct: whole, on cells; Membranes from stably transfected BHK cells; also called hCTR; hCT
T1 sequence (looked up): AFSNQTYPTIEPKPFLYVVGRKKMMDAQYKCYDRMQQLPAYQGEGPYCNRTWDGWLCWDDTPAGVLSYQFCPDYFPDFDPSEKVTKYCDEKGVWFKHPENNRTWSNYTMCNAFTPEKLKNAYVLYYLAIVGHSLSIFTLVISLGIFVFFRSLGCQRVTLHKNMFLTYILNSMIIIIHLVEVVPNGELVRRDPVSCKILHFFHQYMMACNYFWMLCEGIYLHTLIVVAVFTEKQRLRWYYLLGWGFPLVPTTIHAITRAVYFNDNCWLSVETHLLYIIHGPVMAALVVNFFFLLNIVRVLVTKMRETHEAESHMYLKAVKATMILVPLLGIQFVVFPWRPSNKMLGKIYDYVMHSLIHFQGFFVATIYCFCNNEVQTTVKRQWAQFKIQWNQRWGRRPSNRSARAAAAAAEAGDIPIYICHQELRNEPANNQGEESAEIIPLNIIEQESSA
Kind of test: ratio of IC50 on human calcitonin receptor to IC50 on human amylin receptor. The method in brief:
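Membranes (35 ng/μL final) + SPA beads, 50 mM Hepes pH 7.4 buffer with 1 mM CaCl2, 5 mM MgCl₂, 0.1% OA, 0.02% Tween20; 120 min, 25° C, shaking; centrifuged, counted; IC₅₀ by one-site binding competition.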

The target of test [2] is T2, rat amylin receptor (rat calcitonin receptor + rat RAMP 3) (rat, UniProt P32214 25-516; Q9JJ73 23-147).
T2 construct: whole, on cells; Membranes prepared from transiently transfected BHK tk'ts 13 cells; also called rAmylin-R; rat amylin 3(a) receptor
T2 sequence (looked up) 1: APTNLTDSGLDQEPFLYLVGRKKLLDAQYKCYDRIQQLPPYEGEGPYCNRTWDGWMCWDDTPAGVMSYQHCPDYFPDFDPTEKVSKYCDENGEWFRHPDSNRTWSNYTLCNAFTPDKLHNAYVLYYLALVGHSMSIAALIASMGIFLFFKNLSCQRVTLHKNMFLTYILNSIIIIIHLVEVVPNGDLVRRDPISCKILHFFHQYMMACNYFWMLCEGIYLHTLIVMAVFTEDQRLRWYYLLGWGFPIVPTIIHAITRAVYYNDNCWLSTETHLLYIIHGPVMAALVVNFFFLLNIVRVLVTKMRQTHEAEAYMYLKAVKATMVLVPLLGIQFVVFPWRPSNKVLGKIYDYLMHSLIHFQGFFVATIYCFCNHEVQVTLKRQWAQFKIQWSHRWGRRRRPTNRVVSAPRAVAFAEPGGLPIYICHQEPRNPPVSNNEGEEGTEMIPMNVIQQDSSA
T2 sequence (looked up) 2: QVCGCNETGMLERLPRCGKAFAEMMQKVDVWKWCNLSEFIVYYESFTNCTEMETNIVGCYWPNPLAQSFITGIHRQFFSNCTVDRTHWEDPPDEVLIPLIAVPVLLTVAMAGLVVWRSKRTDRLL
The experiment in a line: SPA competition vs 125I-rat amylin, membranes (Assay VI).

In test [3] the target is T3, rat calcitonin receptor (rat, UniProt P32214 25-516).
T3 construct: whole, on cells; Membranes prepared from transiently transfected BHK tk'ts 13 cells; also called rCTR; rat calcitonin (a) receptor
T3 sequence (looked up): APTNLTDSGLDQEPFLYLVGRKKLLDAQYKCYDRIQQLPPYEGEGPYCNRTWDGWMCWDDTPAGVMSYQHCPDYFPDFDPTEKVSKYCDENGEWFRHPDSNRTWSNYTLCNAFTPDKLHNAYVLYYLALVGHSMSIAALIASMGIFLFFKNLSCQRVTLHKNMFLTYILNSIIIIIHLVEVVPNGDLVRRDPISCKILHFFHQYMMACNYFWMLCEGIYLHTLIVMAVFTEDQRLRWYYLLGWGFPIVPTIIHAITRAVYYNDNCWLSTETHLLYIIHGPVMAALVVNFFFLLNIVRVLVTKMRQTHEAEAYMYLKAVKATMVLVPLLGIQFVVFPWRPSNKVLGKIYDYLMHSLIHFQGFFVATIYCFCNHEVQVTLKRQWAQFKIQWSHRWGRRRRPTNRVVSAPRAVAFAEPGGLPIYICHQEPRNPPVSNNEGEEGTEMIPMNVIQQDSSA
Kind of test: ratio of IC50 on rat calcitonin receptor to IC50 on rat amylin receptor.

For test [4], the target named is T3, rat calcitonin receptor. The experiment in a line: SPA competition vs 125I-calcitonin, membranes (Assay VIII).

By IC50 is commonly meant the concentration needed to halve the response being measured. Turning to K([γGlu-C20 diacid])CNTATCATQRLAEFLRHSSPNFGAIPSSTNVGPHTY-NH2 (disulfide 2-7), in test [1], the “Ratio hCT/hAmylin binding” value was determined as 21.2. Besides, the IC50 in test [2] was 0.104 nM; with rat calcitonin receptor [4], 5.43 nM. The “Ratio rCT/rAmylin binding” value with rat calcitonin receptor [3] was determined as 52.2.
On to K([γGlu-γGlu-C20 diacid])CNTATCATQRLADFLRHSSPNFGAIPSSTNVGPRTY-NH2 (disulfide 2-7, also called compound 130), for which the “Ratio hCT/hAmylin binding” value in test [1] is 280. Moreover, the IC50 amounted to 0.93 nM in test [2] and 223 nM with rat calcitonin receptor [4]. For the same molecule, the “Ratio rCT/rAmylin binding” value with rat calcitonin receptor [3] came to 240.

B1: N^ε1-[(4S)-4-carboxy-4-[[(4S)-4-carboxy-4-(19-carboxynonadecanoylamino)butanoyl]amino]butanoyl]-[Arg17,Pro21,Pro27,Pro31,Pro34,Arg35]-h-amylin (peptide)
peptide: K([γGlu-γGlu-C20 diacid])CNTATCATQRLANFLRHSSPNFGAIPSSTPVGPRTY-NH2
modifications: disulfide 2-7; N-terminus assumed
SMILES: CC[C@H](C)[C@H](NC(=O)[C@H](C)NC(=O)CNC(=O)[C@H](Cc1ccccc1)NC(=O)[C@H](CC(N)=O)NC(=O)[C@@H]1CCCN1C(=O)[C@H](CO)NC(=O)[C@H](CO)NC(=O)[C@H](Cc1c[nH]cn1)NC(=O)[C@H](CCCNC(=N)N)NC(=O)[C@H](CC(C)C)NC(=O)[C@H](Cc1ccccc1)NC(=O)[C@H](CC(N)=O)NC(=O)[C@H](C)NC(=O)[C@H](CC(C)C)NC(=O)[C@H](CCCNC(=N)N)NC(=O)[C@H](CCC(N)=O)NC(=O)[C@@H](NC(=O)[C@H](C)NC(=O)[C@@H]1CSSC[C@H](NC(=O)[C@@H](N)CCCCNC(=O)CC[C@H](NC(=O)CC[C@H](NC(=O)CCCCCCCCCCCCCCCCCCC(=O)O)C(=O)O)C(=O)O)C(=O)N[C@@H](CC(N)=O)C(=O)N[C@@H]([C@@H](C)O)C(=O)N[C@@H](C)C(=O)N[C@@H]([C@@H](C)O)C(=O)N1)[C@@H](C)O)C(=O)N1CCC[C@H]1C(=O)N[C@@H](CO)C(=O)N[C@@H](CO)C(=O)N[C@H](C(=O)N1CCC[C@H]1C(=O)N[C@H](C(=O)NCC(=O)N1CCC[C@H]1C(=O)N[C@@H](CCCNC(=N)N)C(=O)N[C@H](C(=O)N[C@@H](Cc1ccc(O)cc1)C(N)=O)[C@@H](C)O)C(C)C)[C@@H](C)O
Take B1: the “Ratio hCT/hAmylin binding” value in test [1] amounted to 48.6. Besides, the IC50 amounted to 0.381 nM in test [2] and 52.4 nM in the test with rat calcitonin receptor [4]. Besides, in the test with rat calcitonin receptor [3], the “Ratio rCT/rAmylin binding” value stood at 137.
On to K([γGlu-γGlu-C20 diacid])CNTATCATQRLADFLRHSSPNFGAIPSSTNVGPETY-NH2 (disulfide 2-7), for which the “Ratio hCT/hAmylin binding” value in test [1] is 49.8. Also, the results for the IC50 (in test [2]; with rat calcitonin receptor [4]) were 0.324 nM and 31.9 nM, respectively. The “Ratio rCT/rAmylin binding” value with rat calcitonin receptor [3] turned out to be 98.5.

B2: N^ε1-[(4S)-4-carboxy-4-[[(4S)-4-carboxy-4-(19-carboxynonadecanoylamino)butanoyl]amino]butanoyl]-[Glu14,Arg17,Pro21,Pro27,His34,Glu35]-h-amylin (peptide)
peptide: K([γGlu-γGlu-C20 diacid])CNTATCATQRLAEFLRHSSPNFGAIPSSTNVGHETY-NH2
modifications: disulfide 2-7; N-terminus assumed
SMILES: CC[C@H](C)[C@H](NC(=O)[C@H](C)NC(=O)CNC(=O)[C@H](Cc1ccccc1)NC(=O)[C@H](CC(N)=O)NC(=O)[C@@H]1CCCN1C(=O)[C@H](CO)NC(=O)[C@H](CO)NC(=O)[C@H](Cc1c[nH]cn1)NC(=O)[C@H](CCCNC(=N)N)NC(=O)[C@H](CC(C)C)NC(=O)[C@H](Cc1ccccc1)NC(=O)[C@H](CCC(=O)O)NC(=O)[C@H](C)NC(=O)[C@H](CC(C)C)NC(=O)[C@H](CCCNC(=N)N)NC(=O)[C@H](CCC(N)=O)NC(=O)[C@@H](NC(=O)[C@H](C)NC(=O)[C@@H]1CSSC[C@H](NC(=O)[C@@H](N)CCCCNC(=O)CC[C@H](NC(=O)CC[C@H](NC(=O)CCCCCCCCCCCCCCCCCCC(=O)O)C(=O)O)C(=O)O)C(=O)N[C@@H](CC(N)=O)C(=O)N[C@@H]([C@@H](C)O)C(=O)N[C@@H](C)C(=O)N[C@@H]([C@@H](C)O)C(=O)N1)[C@@H](C)O)C(=O)N1CCC[C@H]1C(=O)N[C@@H](CO)C(=O)N[C@@H](CO)C(=O)N[C@H](C(=O)N[C@@H](CC(N)=O)C(=O)N[C@H](C(=O)NCC(=O)N[C@@H](Cc1c[nH]cn1)C(=O)N[C@@H](CCC(=O)O)C(=O)N[C@H](C(=O)N[C@@H](Cc1ccc(O)cc1)C(N)=O)[C@@H](C)O)C(C)C)[C@@H](C)O
With B2, the “Ratio hCT/hAmylin binding” value in test [1] is 29.1. The results for the IC50 (in test [2]; in the test with rat calcitonin receptor [4]) were 3.14 nM and 498 nM, respectively. In the test with rat calcitonin receptor [3], the “Ratio rCT/rAmylin binding” value turned out to be 159.

B3: N^ε1-[(4S)-4-carboxy-4-(19-carboxynonadecanoylamino)butanoyl]-[His14,Arg17,Pro21,Pro27,Pro31,Pro34]-h-amylin (peptide)
peptide: K([γGlu-C20 diacid])CNTATCATQRLAHFLRHSSPNFGAIPSSTPVGPNTY-NH2
modifications: disulfide 2-7; N-terminus assumed
SMILES: CC[C@H](C)[C@H](NC(=O)[C@H](C)NC(=O)CNC(=O)[C@H](Cc1ccccc1)NC(=O)[C@H](CC(N)=O)NC(=O)[C@@H]1CCCN1C(=O)[C@H](CO)NC(=O)[C@H](CO)NC(=O)[C@H](Cc1c[nH]cn1)NC(=O)[C@H](CCCNC(=N)N)NC(=O)[C@H](CC(C)C)NC(=O)[C@H](Cc1ccccc1)NC(=O)[C@H](Cc1c[nH]cn1)NC(=O)[C@H](C)NC(=O)[C@H](CC(C)C)NC(=O)[C@H](CCCNC(=N)N)NC(=O)[C@H](CCC(N)=O)NC(=O)[C@@H](NC(=O)[C@H](C)NC(=O)[C@@H]1CSSC[C@H](NC(=O)[C@@H](N)CCCCNC(=O)CC[C@H](NC(=O)CCCCCCCCCCCCCCCCCCC(=O)O)C(=O)O)C(=O)N[C@@H](CC(N)=O)C(=O)N[C@@H]([C@@H](C)O)C(=O)N[C@@H](C)C(=O)N[C@@H]([C@@H](C)O)C(=O)N1)[C@@H](C)O)C(=O)N1CCC[C@H]1C(=O)N[C@@H](CO)C(=O)N[C@@H](CO)C(=O)N[C@H](C(=O)N1CCC[C@H]1C(=O)N[C@H](C(=O)NCC(=O)N1CCC[C@H]1C(=O)N[C@@H](CC(N)=O)C(=O)N[C@H](C(=O)N[C@@H](Cc1ccc(O)cc1)C(N)=O)[C@@H](C)O)C(C)C)[C@@H](C)O
B3: the “Ratio hCT/hAmylin binding” value in test [1] amounted to 24.8. The IC50 in test [2] was 0.125 nM; with rat calcitonin receptor [4], 9.05 nM. Besides, in the test with rat calcitonin receptor [3], the “Ratio rCT/rAmylin binding” value is 72.4.

B4: N^ε1-[(4S)-4-carboxy-4-[[(4S)-4-carboxy-4-(19-carboxynonadecanoylamino)butanoyl]amino]butanoyl]-[Glu14,Arg17,Pro21,Pro27,Arg34,Glu35]-h-amylin (peptide)
peptide: K([γGlu-γGlu-C20 diacid])CNTATCATQRLAEFLRHSSPNFGAIPSSTNVGRETY-NH2
modifications: disulfide 2-7; N-terminus assumed
SMILES: CC[C@H](C)[C@H](NC(=O)[C@H](C)NC(=O)CNC(=O)[C@H](Cc1ccccc1)NC(=O)[C@H](CC(N)=O)NC(=O)[C@@H]1CCCN1C(=O)[C@H](CO)NC(=O)[C@H](CO)NC(=O)[C@H](Cc1c[nH]cn1)NC(=O)[C@H](CCCNC(=N)N)NC(=O)[C@H](CC(C)C)NC(=O)[C@H](Cc1ccccc1)NC(=O)[C@H](CCC(=O)O)NC(=O)[C@H](C)NC(=O)[C@H](CC(C)C)NC(=O)[C@H](CCCNC(=N)N)NC(=O)[C@H](CCC(N)=O)NC(=O)[C@@H](NC(=O)[C@H](C)NC(=O)[C@@H]1CSSC[C@H](NC(=O)[C@@H](N)CCCCNC(=O)CC[C@H](NC(=O)CC[C@H](NC(=O)CCCCCCCCCCCCCCCCCCC(=O)O)C(=O)O)C(=O)O)C(=O)N[C@@H](CC(N)=O)C(=O)N[C@@H]([C@@H](C)O)C(=O)N[C@@H](C)C(=O)N[C@@H]([C@@H](C)O)C(=O)N1)[C@@H](C)O)C(=O)N1CCC[C@H]1C(=O)N[C@@H](CO)C(=O)N[C@@H](CO)C(=O)N[C@H](C(=O)N[C@@H](CC(N)=O)C(=O)N[C@H](C(=O)NCC(=O)N[C@@H](CCCNC(=N)N)C(=O)N[C@@H](CCC(=O)O)C(=O)N[C@H](C(=O)N[C@@H](Cc1ccc(O)cc1)C(N)=O)[C@@H](C)O)C(C)C)[C@@H](C)O
As for B4, the “Ratio hCT/hAmylin binding” value in test [1] was 14.7. In addition, the IC50 in test [2] amounted to 2.86 nM; with rat calcitonin receptor [4], 452 nM. Further, in the test with rat calcitonin receptor [3], the “Ratio rCT/rAmylin binding” value turned out to be 158.
